In the supplement of paper PMC9233669:
Fewer inactive variants are shown than the library holds.

Legend:
biotinyl-Met-oxazolone = assay: self-aminoacylation, catalytic enhancement (BMO) (fold over background); higher = more active; k-Seq, kA / k0A0; sequences stand for … in GGGAAUGGAUCCACAUCUACGAAUUC…UUCACUGCAGACUUGACGAAGCUG
Procedure, shortened: (§1)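 Mutagenized RNA pools (0.43 μM; 21-nt variable region) were treated with 2–1250 μM of each biotinyl-aminoacyl-oxazolone. Conditions were 50 μL HEPES/NaCl/KCl/MgCl2/CaCl2 buffer, 5% acetonitrile, pH 6.9–7.0, room temperature, 90 minutes. Catalytic enhancement, the median kA relative to the uncatalyzed rate, was derived from streptavidin capture, qPCR and Illumina sequencing.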

biotinyl-Trp-oxazolone = assay: self-aminoacylation, catalytic enhancement (BWO) (fold over background); higher = more active; k-Seq, kA / k0A0; sequences stand for … in GGGAAUGGAUCCACAUCUACGAAUUC…UUCACUGCAGACUUGACGAAGCUG
Procedure, shortened: as §1

biotinyl-Val-oxazolone = assay: self-aminoacylation, catalytic enhancement (BVO) (fold over background); higher = more active; k-Seq, kA / k0A0; sequences stand for … in GGGAAUGGAUCCACAUCUACGAAUUC…UUCACUGCAGACUUGACGAAGCUG
Procedure, shortened: as §1

biotinyl-Phe-oxazolone = assay: self-aminoacylation, catalytic enhancement (BFO) (fold over background); higher = more active; k-Seq, kA / k0A0; sequences stand for … in GGGAAUGGAUCCACAUCUACGAAUUC…UUCACUGCAGACUUGACGAAGCUG
Procedure, shortened: as §1

biotinyl-Ile-oxazolone = assay: self-aminoacylation, catalytic enhancement (BIO) (fold over background); higher = more active; k-Seq, kA / k0A0; sequences stand for … in GGGAAUGGAUCCACAUCUACGAAUUC…UUCACUGCAGACUUGACGAAGCUG
Procedure, shortened: as §1

biotinyl-Leu-oxazolone = assay: self-aminoacylation, catalytic enhancement (BLO) (fold over background); higher = more active; k-Seq, kA / k0A0; sequences stand for … in GGGAAUGGAUCCACAUCUACGAAUUC…UUCACUGCAGACUUGACGAAGCUG
Procedure, shortened: as §1

Row | Sequence | self-aminoacylation (biotinyl-Met-oxazolone) | self-aminoacylation (biotinyl-Trp-oxazolone) | self-aminoacylation (biotinyl-Val-oxazolone) | self-aminoacylation (biotinyl-Phe-oxazolone) | self-aminoacylation (biotinyl-Ile-oxazolone) | self-aminoacylation (biotinyl-Leu-oxazolone)
1 | AUUCACCUAUGUCAGCGGGUG [Fam2.2 aminoacylation ribozyme variant] | 3.6 | 3.73 | 2.33 | 28.7 | 2.87 | 4.78
2 | AUUCACCUAUGUCAUCGAGUG [Fam2.2 aminoacylation ribozyme variant] | 4.64 | 4.95 | 2.98 | 17.2 | 3.35 | 5.42
3 | AUUCACCUAUGUCAUCGGCUG [Fam2.2 aminoacylation ribozyme variant] | 1.21 | 0.681 | 1.3 | 0.644 | 1.38 | 1.26
4 | AUUCACCUAUGUCAUCGGGUU [Fam2.2 aminoacylation ribozyme variant] | 1.48 | 1.75 | 1.61 | 0.724 | 1.35 | 1.86
5 | AUUCACCUAUGUCCUCGGGUG [Fam2.2 aminoacylation ribozyme variant] | 3.04 | 3.42 | 2.04 | 21.6 | 2.17 | 4.03
6 | AUUCACCUAUGUCGUCGGGUG [Fam2.2 aminoacylation ribozyme variant] | 1.28 | 1.3 | 1.15 | 6.21 | 1.19 | 1.44
7 | AUUCACCUAUGUGAUCGGGUG [Fam2.2 aminoacylation ribozyme variant] | 2.14 | 2.25 | 1.99 | 15.9 | 1.69 | 2.74
8 | AUUCACCUCCGUCAUCGGGUG [Fam2.2 aminoacylation ribozyme variant] | 8.59 | 8.32 | 4.91 | 70.3 | 5.62 | 10.8
9 | AUUCACCUCGGUCAACGGGUG [Fam2.2 aminoacylation ribozyme variant] | 3.98 | 3.36 | 2.82 | 27.8 | 2.44 | 5.39
10 | AUUCACCUCGGUCAUAGGGUG [Fam2.2 aminoacylation ribozyme variant] | 1.41 | 1.43 | 1.19 | 5.66 | 1.11 | 1.76
11 | AUUCACCUCGGUCAUCCGGUG [Fam2.2 aminoacylation ribozyme variant] | 12.2 | 11.1 | 7.28 | 78.8 | 6.84 | 14
12 | AUUCACCUCGGUCAUCGGGUA [Fam2.2 aminoacylation ribozyme variant] | 3.24 | 3.95 | 3.25 | 17 | 2.96 | 2.87
13 | AUUCACCUGAGUCAUCGGGUG [Fam2.2 aminoacylation ribozyme variant] | 13 | 9.59 | 5.03 | 35.9 | 5.26 | 15
14 | AUUCACCUGCGUCAUCGGGUG [Fam2.2 aminoacylation ribozyme variant] | 7.79 | 7.09 | 5.41 | 49.4 | 5.17 | 10.6
15 | AUUCACCUGGGUCAUCAGGUG [Fam2.2 aminoacylation ribozyme variant] | 1.48 | 1.36 | 1.92 | 6.12 | 1.52 | 1.67
16 | AUUCACCUGGGUCAUCGCGUG [Fam2.2 aminoacylation ribozyme variant] | 14.3 | 14.3 | 9.89 | 110 | 8.24 | 17.1
17 | AUUCACCUGGGUCAUGGGGUG [Fam2.2 aminoacylation ribozyme variant] | 6.65 | 6.16 | 4.9 | 51.6 | 4.05 | 9.15
18 | AUUCACCUGGGUCCUCGGGUG [Fam2.2 aminoacylation ribozyme variant] | 6.49 | 6.22 | 4.67 | 39 | 4.33 | 7.74
19 | AUUCACCUGGGUCGUCGGGUG [Fam2.2 aminoacylation ribozyme variant] | 2.46 | 2.11 | 2.48 | 6.66 | 1.93 | 2.3
20 | AUUCACCUGGUUCAUCGGGUG [Fam2.2 aminoacylation ribozyme variant] | 3.08 | 3.62 | 3.1 | 15.2 | 2.42 | 3.19
21 | AUUCACCUUGCUCAUCGGGUG [Fam2.2 aminoacylation ribozyme variant] | 1.94 | 2.01 | 2 | 10.7 | 1.84 | 2.63
22 | AUUCACCUUGGUCAACGGGUG [Fam2.2 aminoacylation ribozyme variant] | 3.19 | 3.03 | 2.2 | 20.3 | 2.22 | 4.24
23 | AUUCACCUUGGUCAGCGGGUG [Fam2.2 aminoacylation ribozyme variant] | 3.99 | 3.71 | 3.16 | 25.6 | 2.71 | 5.32
24 | AUUCACCUUGGUCAUCGGGAG [Fam2.2 aminoacylation ribozyme variant] | 1.05 | 1.27 | 1.05 | 0.73 | 1.07 | 1.09
25 | AUUCACCUUGGUCAUCGGGUC [Fam2.2 aminoacylation ribozyme variant] | 1.32 | 1.28 | 1.58 | 4.87 | 1.2 | 1.15
26 | AUUCACCUUGGUCGUCGGGUG [Fam2.2 aminoacylation ribozyme variant] | 1.86 | 2.01 | 1.81 | 11.3 | 1.9 | 2.18

Row | Sequence | self-aminoacylation (biotinyl-Met-oxazolone) | self-aminoacylation (biotinyl-Trp-oxazolone) | self-aminoacylation (biotinyl-Val-oxazolone) | self-aminoacylation (biotinyl-Phe-oxazolone) | self-aminoacylation (biotinyl-Ile-oxazolone) | self-aminoacylation (biotinyl-Leu-oxazolone)
27 | AUUCACCUUGGUUAUCGGGUG [Fam2.2 aminoacylation ribozyme variant] | 5.13 | 5.27 | 3.85 | 35.2 | 3.26 | 5.92
28 | AUUCACCUUGUUCAUCGGGUG [Fam2.2 aminoacylation ribozyme variant] | 2.72 | 2.91 | 2.42 | 15.2 | 2.01 | 3.38
29 | AUUCACCUUUGUCAUCGGGUG [Fam2.2 aminoacylation ribozyme variant] | 4.43 | 4.62 | 3.11 | 25.4 | 3.14 | 5.41
30 | AUUCACGUAGGCCAUCGGGUG [Fam2.2 aminoacylation ribozyme variant] | 4.29 | 5.37 | 5.3 | 48.1 | 3.71 | 4.12
31 | AUUCACGUAGGUCAACGGGUG [Fam2.2 aminoacylation ribozyme variant] | 3.95 | 4.47 | 3.15 | 21.1 | 2.77 | 4.96
32 | AUUCACGUAGGUCAUCCGGUG [Fam2.2 aminoacylation ribozyme variant] | 13.2 | 12.1 | 8.57 | 120 | 7.72 | 17
33 | AUUCACGUAGGUCAUCGGCUG [Fam2.2 aminoacylation ribozyme variant] | 2.35 | 3.17 | 3.36 | 6.6 | 2.35 | 2.91
34 | AUUCACGUAGGUCAUGGGGUG [Fam2.2 aminoacylation ribozyme variant] | 3.45 | 4.5 | 4.23 | 24.6 | 3.34 | 5.48
35 | AUUCACGUAGGUCUUCGGGUG [Fam2.2 aminoacylation ribozyme variant] | 4.21 | 4.88 | 5.24 | 40.1 | 3.86 | 4.82
36 | AUUCACUUACGUCAUCGGGUG [Fam2.2 aminoacylation ribozyme variant] | 5.61 | 5.63 | 3.36 | 38.4 | 3.35 | 7.03
37 | AUUCACUUAGGACAUCGGGUG [Fam2.2 aminoacylation ribozyme variant] | 3.21 | 2.78 | 2.33 | 14.1 | 2.33 | 3.44
38 | AUUCACUUAGGUCAUCGGGAG [Fam2.2 aminoacylation ribozyme variant] | 1.1 | 0.745 | 1.11 | 0.746 | 1.02 | 1.22
39 | AUUCACUUAGGUCAUCGGGCG [Fam2.2 aminoacylation ribozyme variant] | 3.18 | 3.91 | 3.17 | 4.38 | 2.55 | 4.02
40 | AUUCACUUAGGUCAUCGGGUG [Fam2.2 aminoacylation ribozyme variant] | 6.36 | 6.28 | 3.86 | 48.3 | 3.87 | 8.1
41 | AUUCACUUAGGUCUUCGGGUG [Fam2.2 aminoacylation ribozyme variant] | 3.58 | 4.2 | 2.71 | 22.7 | 2.96 | 3.95
42 | AUUCACUUAGGUUAUCGGGUG [Fam2.2 aminoacylation ribozyme variant] | 3.33 | 3.68 | 2.5 | 18.6 | 2.37 | 4.03
43 | AUUCAGCCAGGUCAUCGGGUG [Fam2.2 aminoacylation ribozyme variant] | 8.99 | 9.91 | 5.4 | 59.7 | 5.25 | 10.7
44 | AUUCAGCUAAGUCAUCGGGUG [Fam2.2 aminoacylation ribozyme variant] | 3 | 2.81 | 2.96 | 24.6 | 2.96 | 3.99
45 | AUUCAGCUAGGGCAUCGGGUG [Fam2.2 aminoacylation ribozyme variant] | 6.69 | 6.75 | 4.65 | 64.3 | 4.72 | 7.92
46 | AUUCAGCUAGGUCAUCAGGUG [Fam2.2 aminoacylation ribozyme variant] | 2.38 | 2.09 | 2.04 | 8.1 | 1.63 | 2.39
47 | AUUCAGCUAGGUCAUCGGGUG [Fam2.2 aminoacylation ribozyme variant] | 4.92 | 5.34 | 4.2 | 35 | 3.7 | 5.83
48 | AUUCAGCUAGGUCAUGGGGUG [Fam2.2 aminoacylation ribozyme variant] | 3.03 | 3.72 | 2.98 | 17.8 | 2.74 | 2.94
49 | AUUCAGCUAGGUCCUCGGGUG [Fam2.2 aminoacylation ribozyme variant] | 6.2 | 6.56 | 4.46 | 55.4 | 4.67 | 9.02
50 | AUUCAGCUAGGUUAUCGGGUG [Fam2.2 aminoacylation ribozyme variant] | 7.59 | 8.86 | 5.16 | 60.4 | 5.01 | 9.36
51 | AUUCAGCUAGUUCAUCGGGUG [Fam2.2 aminoacylation ribozyme variant] | 7.01 | 7.26 | 4.95 | 52.3 | 5.34 | 9.16
